Source: the DeepSol protein solubility set

Test: soluble on expression in E. coli; label from the status in PepcDB or PDB records

Row | Sequence | soluble on expression in E. coli
1 | MSLAAVPAPDPGPDAGAIWHYGDPLGEQRAGQADAVLVDRSHRAVLTLDGGDRQTWLHSISTQHVSDLPEGASTQNLSLDGQGRVEDHWIQTELGGTTYLDTEPWRGEPLLAYLRKMVFWSMVTPRAADMAVLSLLGPRLAEERVLDALGLDVLPAEWLAVPLAGGGIVRRMPDGLAGQIELDVVVKRGDRADWQRRLTQAGVRPAGIWAYEAHRVAHRVPARRPRLGVDTDERTIPHEVGWIGGPGAGAVHLNKGCYRGQETVARVHNLGRPPRMLVLLHLDESVQRPSTGDAVLAGGRTVGRLGTVVEHVELGPVALALLKRGLPGDTALVTGPEAEVAAVIDVDSLPPADDVGAGRRAVERLRGGIREGHHHHHH | soluble
2 | MGSDKIHHHHHHMRSADSSPAYSPIGSLSSSHSFDSIPDQRMNKSLLSLACLILCGMPAIAQQTGPAERSGEPSLAERVFGLEQKQKKLKVYLGIQSFYDQPLVDDESHIGHFKVQELRMSAHGELNRHLSFDWRQRLNRAADGTSFADNLSNAIDIAGVDWHPNDKVSFFFGRQYARFGGIEYDMNPVEIYQYSDLVDYMTCYTSGVNFAWNFHPEQQLQLQVLNAYNNRFADRYHVTPDVATATSYPLLYSAQWNGTLLGGALHMRYAVSMAHQAQERNMWYFTAGNLFNPGKRINGYLDLTYSIEGLDDKGIMTARYGKGKTLTDVKYYALVSKWNFRIFDQVNLFLKGMYENGYAPAQYGESSHTRHSYGYMGGVEYYPTETNFRLFVTYIGRHYRYSATETESTNALRAGLIYQIPFL | not soluble
3 | MSNDDNVELTDGFHVLIDALKMNDIDTMYGVVGIPITNLARMWQDDGQRFYSFRHEQHAGYAASIAGYIEGKPGVCLTVSAPGFLNGVTSLAHATTNCFPMILLSGSSEREIVDLQQGDYEEMDQMNVARPHCKASFRINSIKDIPIGIARAVRTAVSGRPGGVYVDLPAKLFGQTISVEEANKLLFKPIDPAPAQIPAEDAIARAADLIKNAKRPVIMLGKGAAYAQCDDEIRALVEETGIPFLPMGMAKGLLPDNHPQSAAATRAFALAQCDVCVLIGARLNWLMQHGKGKTWGDELKKYVQIDIQANEMDSNQPIAAPVVGDIKSAVSLLRKALKGAPKADAEWTGALKAKVDGNKAKLAGKMTAETPSGMMNYSNSLGVVRDFMLANPDISLVNEGANALDNTRMIVDMLKPRKRLDSGTWGVMGIGMGYCVAAAAVTGKPVIAVEGDSAFGFSGMELETICRYNLPVTVIIMNNGGIYKGNEADPQPGVISCTRLTRGRYDMMMEAFGGKGYVANTPAELKAALEEAVASGKPCLINAMIDPDAGVESGRIKSLNVVSKVGKK | soluble
4 | MGSDKIHHHHHHMDHEQIESQPWPQEGLERVERCPICGEVDRALLHDGLTDKIFFCAPGRWSLYQCPTCGAAYLDPRPTPATIAMAYSDYYTHEEGDDAPKGRFAHLKRRLRNDYLNARYNADLQPAWKVGRWITPLLGRKRKQIDESVRHLPATGKPGVLVDIGCGNGQFLGVAMQLGWEAWGVDLDPKAVKTAQKTGATVIQGGFPDTGLPSAHFDIVTLSHVIEHVHDPLAALREAFRVLKPGGHLWLATPNMGSFGHVRFGADWRGLEPPRHLVLFNNNSLEIALDGAGFIDIKQKPCLAQAAWFYQSSLRISRCQDPYDASASGLPLTLWIAAKLVDFRVAVSPFRCESIVVTAKRPESD | not soluble
5 | MDLDKLVHQPTRLELFAYLYRHGESSFGDLTDELDLTEGNLSSHLQRMEDADAVEVRKEFVDKRPHTTAVLTEDGEAMFEDHVQTLQGLIDGLELEHHHHHH | not soluble
6 | MAGSGVAKQIFALDFEIFGRVQGVFFRKHTSHEAKRLGVRGWCMNTRDGTVKGQLEAPMMNLMEMKHWLENNRIPNAKVSKAEFSQIQEIEDYTFTSFDIKH | soluble
7 | MGSDKIHHHHHHMNVLNDSVDDTVQKKVAFFLPTLNIGGIERVFITYANYLIDKKYNIYFILCKRRGELLSLLDSNIKLYHLGNVQLKFSFLKLRQSLKEIQPDVIVSGGDFPNLILIVSSLGLKKVPKIIISQHNYYNVETRRLGWWAYGTCFFMKKIYPKADKIIAVSDGIREFLIKKIHISADRIIKLPNPIDIKGIKEKSLELLDITLPDRYILFVGRLSYVKNLFFLLDAFEMGKLDNNSLVIVGDGEMRNALMKKAKKMHKADNIIFLGAMENPLPILKKAQLLVLPSFSEAYPTILLEALCLYIPVVSTPTKGAKEILHNVSGTYISTDCYNIEEFARLMERGVKERISHKVIDDKIGLNSIENIGLRIQREIIEDNRL | not soluble
8 | MGSDKIHHHHHHMSMAMEHDLLIVGGGPVGATLALALQYKGIDATVLEARAHGAAHHDQRALALSYGSILILERLGLWSGLKPKATAINTIHVSQRGSLGRSLLKAEDHDQPALGYVLSYGDLSAALDDAIRQFPGIQVRYEAEALAIKPGREAAHVEYQYQAQAYSCNSRMTVLADGGRSLADIPGLERETKHYGHDALVSKVSCELPHDNIAYERFTPAGPVALLPNGTRDFSLVWTGKAEEVQALLALDDAAFLEALHTHFGDRVGRFLTVGKRLSFPLKLSYLKPVTAPHLTVIGNAAQTMHPVAGQGFNVGMRDAWELAQLLAQTPSEEWGMDRMMQAYQASRKADTRGGLLFTDFLVNVFSNDIVGLRKIRSLGLGLLDMLPLAKQHLVSKMSFGPRG | not soluble
9 | MKIWSKEEVVNKLHEIKNKGYLSVPTDMFRTDDGVVGQILERQFGVQENNITLGDLGEFELKGMRNRKAKSNLTLFHKKPVAGQTVIQIFNRFGYVKPSSRNPEVMKKKLFTTIKGGRLNNLGLTLNAKHASEINLYYQDEYLSTWDLNLSKIEKLVLVFAETIGRANSPEEQFHFTKAYMLTEINDITSLINDGVLVMDLCIDQDLSKSKGPHDRGPHLRIPISKLDKLYRNIERLL | soluble
10 | MERPQPDSMPQDLSEALKEATKEVHTQAENAEFMRNFQKGQVTRDGFKLVMASLYHIYVALEEEIERNKESPVFAPVYFPEELHRKAALEQDLAFWYGPRWQEVIPYTPAMQRYVKRLHEVGRTEPELLVAHAYTRYLGDLSGGQVLKKIAQKALDLPSSGEGLAFFTFPNIASATKFKQLYESRMNSLEMTPAVRQRVIEEAKTAFLLNIQLFEELQELLTHDTKDQSPSRA | soluble
11 | MIQRFIELGEGYSDIYELIALAKANRHRLSGFFVFHTVKKGQAVVSLAIVLHPTDPGDFQPLYICREGIPDPSVKPNKRYELFMETAKELGMDVIHLDVKPSTMFAELDLYYQHLIGIMRMNRFIPPLQ | not soluble
12 | MSSRKVSRAHYDEDELASAANMSLVAEGHFRGMKELLSTMDLDTDANTIPELKERAHMLCARFLGGAWKTVPLEHLRISRIKGGMSNMLFLCRLSEVYPPIRNEPNKVLLRVYFNPETESHLVAESVIFTLLSERHLGPKLYGIFSGGRLEEYIPSRPLSCHEISLAHMSTKIAKRVAKVHQLEVPIWKEPDYLCEALQRWLKQLTGTVDAEHRFDLPEECGVSSVNCLDLARELEFLRAHISLSKSPVTFCHNDLQEGNILLPKASSGNIRMPSLSDETQALGNSLSAFNPADPRLVLIDFEYASYNYRAFDFANHFIEWTIDYDIDEAPFYKIQTENFPENDQMLEFFLNYLREQGNTRENELYKKSEDLVQETLPFVPVSHFFWGVWGLLQVELSPVGFGFADYGRDRLSLYFKHKQLLKNLASHQ | soluble
13 | MGSDKIHHHHHHMKIIILGAGQVGGTLAENLVGENNDITIVDSDKNKLRSLQDKYDLRVVVGHGAHPDVLREAGAEDADMLIAVTNSDECNMSACQIAYTLFGTPTKIARIRSEQYLHMQERLFIDSETKNSDNRTRGGFVIDELIAPEQLVTSYIQRLVEYPGALQVLEFAEGKLSLVAVRAYYGGPLVGNALAALREHMPNIDTRVAAIFRQGRPIMPRGTTIIEADDEVFFVADSRHIRAVMSEMQKLDNSYRNIMIAGGGNIGLGLAKKLERNHSVKLIEHKAERAEALSEKLQNTTVFCGDASDQELLLEEHIDQTDVFIAVTNDDEANIMSALLAKRMGAKKVMVLIQREAYVDIVQEANIDIAISPQQATISALLTHIRQGDICNVYSLRRGAAEAIEAIAHGDPSTSKVVGKQIGEIRLPPGTTIGAIVRNDEVLMAHDKTVIEQGDHVILFLVNKKFIGEVERLFQPSAFFF | not soluble
14 | MEYEWKPDEQGLQQILQLLKESQSPDTTIQRTVQQKLEQLNQYPDFNNYLIFVLTKLKSEDEPTRSLSGLILKNNVKAHFQNFPNGVTDFIKSECLNNIGDSSPLIRATVGILITTIASKGELQNWPDLLPKLCSLLDSEDYNTCEGAFGALQKICEDSAEILDSDVLDRPLNIMIPKFLQFFKHSSPKIRSHAVACVNQFIISRTQALMLHIDSFTENLFALAGDEEPEVRKNVCRALVMLLEVRMDRLLPHMHNIVEYMLQRTQDQDENVALEACEFWLTLAEQPICKDVLVRHLPKLIPVLVNGMKYSDIDIILLKGDVEEDETIPDSEQDIRPRFHRSRTVAQQHDEDGIEEEDDDDDEIDDDDTISDWNLRKCSAAALDVLANVYRDELLPHILPLLKELLFHHEWVVKESGILVLGAIAEGCMQGMIPYLPELIPHLIQCLSDKKALVRSITCWTLSRYAHWVVSQPPDTYLKPLMTELLKRILDSNKRVQEAACSAFATLEEEACTELVPYLAYILDTLVFAFSKYQHKNLLILYDAIGTLADSVGHHLNKPEYIQMLMPPLIQKWNMLKDEDKDLFPLLECLSSVATALQSGFLPYCEPVYQRCVNLVQKTLAQAMLNNAQPDQYEAPDKDFMIVALDLLSGLAEGLGGNIEQLVARSNILTLMYQCMQDKMPEVRQSSFALLGDLTKACFQHVKPCIADFMPILGTNLNPEFISVCNNATWAIGEISIQMGIEMQPYIPMVLHQLVEIINRPNTPKTLLENTAITIGRLGYVCPQEVAPMLQQFIRPWCTSLRNIRDNEEKDSAFRGICTMISVNPSGVIQDFIFFCDAVASWINPKDDLRDMFCKILHGFKNQVGDENWRRFSDQFPLPLKERLAAFYGV | soluble
15 | MAHHHHHHMKEGDFEGAEERFIKAIEEIEKFPEGKVDPKLVEQMRELLEDAREMKDGRFKEIQEFIQEQFAVNETERLPTAHEFYGDVDEQQHPFVSRLPNDGECSALSMPQSNTNPVQWSEHSNSMSLSLFPSQVNGRSSEASNSQPVQHVVARRKPKPLQKQKALEVESSGNVSTGSDMKRFRAES | soluble
16 | MSEDIGVTRFREYLRVNTEQPKPDYEACRDFLFKYADELGIERRSVETAPGTYFVIMTIPGSKPDLPSIMLYSHTDVVPTFREYWTHDPYSAFKDEDGNIFARGAQDMKCVGVQYMEALRNWFAKGVKQWTRTIHIVWGPDEEIGHINGMKGFAVTEEFKKLNIDFALDEGIATEDDVYKIFYAERIPWWVKVTLPGHPGHGSKFIEKTAIEKLHKLIASVDEFRNEQKSLLAEHPEWTVGDVTTSNITIINGGVQVNVVPEKFEAYIDIRVTPLQDLDAVLARVDQWAKEAGEGVTYEFMQFSNFKLISPNTREDPFWAAIDDALQKEGCKYKKEIFIGATDSRFVRAQGIRAIGFSPIINTPSLLHDHNEFLNEKTFLRGVEIYETLINKLANVN | not soluble
17 | MKIDRLKTDLAKAREKAAEWQARVRDLEKQITEQENLEILQVVRSVAASPEELRGLLDMIRGAKMPMAGTARTFENMDKEEI | not soluble
18 | MVVFNGLLKIKICEAVSLKPTAWSLRDAVGPRPQTFLLDPYIALNVDDSRIGQTATKQKTNSPAWHDEFVTDVCNGRKIELAVFHDAPIGYDDFVANCTIQFEELLQNGSRHFEDWIDLEPEGKVYVIIDLSGSSG | soluble
19 | MMPYILVFMVCIFLTSISSRKKIIPLLLSCLILSLFAGFRDKNIGSDTDFYPHWYISEIRYIHNLIDLITIETERNLDKGYLFLYWIASWIGNQ | not soluble
20 | AHHHHHHGSIEVRFHGRGGQGAVTAANILAEAAFLEGKYVQAFPFFGVERRGAPVTAFTRIDNKPIRIKTQIYEPDVVVVLDPSLLDAVDVTAGLKDEGIVIVNTEKSKEEVLEKLKKKPKKLAIVDATTIALEILGLPITNTAILGAVAKATGLVKIESIEEAIKDTFSGELGEKNARAAREAYEKTEVFEL | soluble
